Data from article PMC10201424, “Biochemical characterisation of Mer3 helicase interactions and the protection of meiotic recombination intermediates” (Nucleic Acids Research, 2022).
Where “and” joins values, the source holds several entries; their conditions need not be identical. Equal entries are not always repeated.

Experiments:
[1] = target: Mer3-Strep (full-length S. cerevisiae Mer3 with C-terminal 2xStrep-II tag) (S. cerevisiae) (UniProt P51979); assay: SEC-MALS; full-length Mer3, 10 μM at injection, Superose 6 5/150; 30 mM HEPES pH 6.8, 300 mM NaCl, 1 mM MgCl2, 5 μM ZnCl2, 1 mM TCEP
Top3/GST-Rmi1 complex = target: T1, Top3/GST-Rmi1 complex (S. cerevisiae, UniProt P13099 1-656; Q02685 1-241); assay: pull-down; competition: Top3/GST-Rmi1 (1 μM) on glutathione beads, Mer3-Strep 1 μM, His-Sgs1(1–107) 8 or 25 μM; 25 mM HEPES pH 7.5, 5% glycerol, 100 mM NaCl, 1 mM TCEP, 0.1% Tween-20; Coomassie; conditions: both partners purified
T1 construct: Top3 (type IA topoisomerase), S. cerevisiae, from SK1 strain genomic DNA; untagged; Rmi1, S. cerevisiae, from SK1 strain genomic DNA; also called GST-tagged Top3–Rmi1; GST-Rmi1/Top3; source: Hi5 insect cells (co-expressed from pBIG1a), purified (GSTrap, ResourceS, SEC); not shown: GST, N-terminal, kept
T1 sequence (looked up) 1: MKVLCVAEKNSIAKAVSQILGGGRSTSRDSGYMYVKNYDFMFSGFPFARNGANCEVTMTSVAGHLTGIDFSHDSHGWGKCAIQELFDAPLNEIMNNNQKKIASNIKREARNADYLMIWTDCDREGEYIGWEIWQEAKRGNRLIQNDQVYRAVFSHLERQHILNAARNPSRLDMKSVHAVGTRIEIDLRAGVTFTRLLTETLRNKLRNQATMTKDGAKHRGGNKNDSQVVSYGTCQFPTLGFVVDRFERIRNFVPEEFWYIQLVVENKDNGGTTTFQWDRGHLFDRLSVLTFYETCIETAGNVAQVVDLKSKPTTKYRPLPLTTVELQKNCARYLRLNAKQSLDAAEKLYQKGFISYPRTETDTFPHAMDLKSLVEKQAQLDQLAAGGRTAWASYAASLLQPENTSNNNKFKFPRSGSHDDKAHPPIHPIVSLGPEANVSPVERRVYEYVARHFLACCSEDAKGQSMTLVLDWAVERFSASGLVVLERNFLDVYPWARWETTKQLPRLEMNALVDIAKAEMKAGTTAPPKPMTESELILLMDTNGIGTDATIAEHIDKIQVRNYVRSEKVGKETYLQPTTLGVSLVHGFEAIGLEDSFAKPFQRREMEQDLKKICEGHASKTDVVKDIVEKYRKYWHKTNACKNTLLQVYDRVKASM
T1 sequence (looked up) 2: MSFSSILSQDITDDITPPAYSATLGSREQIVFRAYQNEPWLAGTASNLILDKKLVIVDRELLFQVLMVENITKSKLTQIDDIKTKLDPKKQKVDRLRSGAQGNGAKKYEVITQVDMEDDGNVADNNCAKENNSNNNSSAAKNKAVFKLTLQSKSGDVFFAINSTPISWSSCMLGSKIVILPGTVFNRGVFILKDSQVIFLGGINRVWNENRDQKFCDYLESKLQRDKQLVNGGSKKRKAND

[2] = target: T2, Top3/Rmi1 complex (as used in MST and XL-MS) (S. cerevisiae, UniProt P13099 1-656; Q02685 1-241); assay: MST; 30 nM RED-NHS labelled Sgs1(1–605), Top3–Rmi1 titrated; 50 mM Tris–HCl pH 7.4, 150 mM NaCl, 10 mM MgCl2, 0.05% Tween-20; 25°C; triplicates; conditions: both partners purified
T2 construct: Top3 (type IA topoisomerase), S. cerevisiae, from SK1 strain genomic DNA; untagged; Rmi1, S. cerevisiae, from SK1 strain genomic DNA; The methods describe a GST-tagged and an untagged (3C protease cleaved) preparation; source: Hi5 insect cells (co-expressed from pBIG1a), purified
T2 sequence (looked up) 1: T1 sequence (looked up) 1
T2 sequence (looked up) 2: T1 sequence (looked up) 2

[3] = target: T3, Mer3-Strep (full-length S. cerevisiae Mer3 with C-terminal 2xStrep-II tag) (S. cerevisiae, UniProt P51979 1-1187, phosphorylated in insect cells; high-confidence sites S17, S80, T100, S398, S958, T1092); assay: pull-down; Mer3-Strep (0.7 μM) held by anti-Strep antibody and protein G beads (the legend says StrepTactin pulldown), His-Top3 1.3 μM; 25 mM HEPES pH 7.5, 5% glycerol, 50 mM NaCl, 1 mM TCEP, 0.1% Tween-20; western blot; conditions: both partners purified
T3 sequence (looked up): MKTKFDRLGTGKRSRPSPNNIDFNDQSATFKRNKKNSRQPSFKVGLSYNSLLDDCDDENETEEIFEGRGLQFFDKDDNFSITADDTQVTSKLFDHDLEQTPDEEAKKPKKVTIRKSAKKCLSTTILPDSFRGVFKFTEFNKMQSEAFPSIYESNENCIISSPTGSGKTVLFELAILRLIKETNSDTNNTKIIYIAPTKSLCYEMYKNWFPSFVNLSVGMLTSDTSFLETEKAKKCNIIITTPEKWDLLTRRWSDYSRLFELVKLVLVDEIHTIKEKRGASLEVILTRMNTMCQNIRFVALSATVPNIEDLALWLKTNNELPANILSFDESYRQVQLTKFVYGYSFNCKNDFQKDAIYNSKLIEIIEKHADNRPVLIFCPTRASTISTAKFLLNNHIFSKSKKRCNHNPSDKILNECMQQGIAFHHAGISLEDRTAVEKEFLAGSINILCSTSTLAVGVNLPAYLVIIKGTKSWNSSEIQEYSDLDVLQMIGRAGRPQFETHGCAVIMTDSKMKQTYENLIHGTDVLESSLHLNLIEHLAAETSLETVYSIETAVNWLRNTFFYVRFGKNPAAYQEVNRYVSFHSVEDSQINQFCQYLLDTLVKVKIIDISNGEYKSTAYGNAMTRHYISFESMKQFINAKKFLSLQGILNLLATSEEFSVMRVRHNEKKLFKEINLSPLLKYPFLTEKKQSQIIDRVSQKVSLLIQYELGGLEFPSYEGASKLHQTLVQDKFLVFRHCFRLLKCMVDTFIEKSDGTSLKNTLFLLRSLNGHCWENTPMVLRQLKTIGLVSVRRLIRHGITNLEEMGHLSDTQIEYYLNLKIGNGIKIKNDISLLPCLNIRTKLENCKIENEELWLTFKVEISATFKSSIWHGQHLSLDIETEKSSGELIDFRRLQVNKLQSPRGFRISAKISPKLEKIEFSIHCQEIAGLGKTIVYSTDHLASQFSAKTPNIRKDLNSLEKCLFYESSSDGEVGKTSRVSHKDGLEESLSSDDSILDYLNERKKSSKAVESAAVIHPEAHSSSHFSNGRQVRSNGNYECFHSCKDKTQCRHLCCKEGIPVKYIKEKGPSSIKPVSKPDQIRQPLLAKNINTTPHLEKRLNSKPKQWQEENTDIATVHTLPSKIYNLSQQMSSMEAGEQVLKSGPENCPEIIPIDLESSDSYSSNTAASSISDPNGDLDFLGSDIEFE

[4] = target: T3, Mer3-Strep (full-length S. cerevisiae …); assay: MST; 45 nM RED-NHS labelled Mer3, partner titrated; 50 mM Tris–HCl pH 7.4, 150 mM NaCl, 10 mM MgCl2, 0.05% Tween-20; 25°C; triplicates; conditions: both partners purified
[5] = target: T4, Top3, untagged (chain of the Top3/Rmi1 complex) (S. cerevisiae, UniProt P13099 1-656); assay: cross-linking; XL-MS with DSBU, proteins 3 μM, 1 h at 25°C; 30 mM HEPES 6.8, 150 mM NaCl, 5% glycerol, 1 mM MgCl2, 1 mM TCEP; samples: Mer3, Mlh1/Mlh2, Mer3/Mlh1/Mlh2, Top3/Rmi1, Mer3/Top3/Rmi1; conditions: both partners purified
T4 construct: Top3 (type IA topoisomerase), S. cerevisiae, from SK1 strain genomic DNA; untagged; Same chain as in m10 and m11; source: Hi5 insect cells (co-expressed with GST-Rmi1), purified with Rmi1
T4 sequence (looked up): T1 sequence (looked up) 1

## Mer3-Strep (full-length S. cerevisiae Mer3 with C-terminal 2xStrep-II tag) (from UniProt P51979 1-1187) (enzyme)
[1]
  stoichiometry N: 2

B1: His-tagged Sgs1(1–107) (domain or fragment, S. cerevisiae, UniProt P35187 1-107, looked up)
chain: MVTKPSHNLRREHKWLKETATLQEDKDFVFQAIQKHIANKRPKTNSPPTTPSKDECGPGTTNFITSIPASGPTNTATKQHEVMQTLSNDTEWLSYTATSNQYADVPM
notes: also called shorter fragment of Sgs1; source: E. coli BL21 STAR, purified (Ni-NTA, ResourceQ, SEC); not shown: His6, N-terminal, kept
Top3/GST-Rmi1 complex
  binding result: binds

B2: Sgs1(1–605) (domain or fragment, S. cerevisiae, UniProt P35187 1-605, looked up)
chain: MVTKPSHNLRREHKWLKETATLQEDKDFVFQAIQKHIANKRPKTNSPPTTPSKDECGPGTTNFITSIPASGPTNTATKQHEVMQTLSNDTEWLSYTATSNQYADVPMVDIPASTSVVSNPRTPNGSKTHNFNTFRPHMASSLVENDSSRNLGSRNNNKSVIDNSSIGKQLENDIKLEVIRLQGSLIMALKEQSKLLLQKCSIIESTSLSEDAKRLQLSRDIRPQLSNMSIRIDSLEKEIIKAKKDGMSKDQSKGRSQVSSQDDNIISSILPSPLEYNTSSRNSNLTSTTATTVTKALAITGAKQNITNNTGKNSNNDSNNDDLIQVLDDEDDIDCDPPVILKEGAPHSPAFPHLHMTSEEQDELTRRRNMRSREPVNYRIPDRDDPFDYVMGKSLRDDYPDVEREEDELTMEAEDDAHSSYMTTRDEEKEENELLNQSDFDFVVNDDLDPTQDTDYHDNMDVSANIQESSQEGDTRSTITLSQNKNVQVILSSPTAQSVPSNGQNQIGVEHIDLLEDDLEKDAILDDSMSFSFGRQHMPMSHSDLELIDSEKENEDFEEDNNNNGIEYLSDSDLERFDEERENRTQVADIQELDNDLKIITERKL
notes: Sgs1 helicase, S. cerevisiae, from SK1 strain genomic DNA, residues 1-605; For MST the fragment was labelled with RED-NHS dye; also called untagged Sgs1(1–605); N-terminal fragment of Sgs1; source: E. coli BL21 STAR, purified (MBPtrap, ResourceQ, 3C cleavage, SEC); not shown: His6, N-terminal, cleaved; MBP, N-terminal, cleaved
[2]
  Kd: 478 ± 205 nM

B3: His-Top3 (enzyme, S. cerevisiae, UniProt P13099 1-656, looked up)
chain: T1 sequence (looked up) 1
notes: Top3 (type IA topoisomerase), S. cerevisiae, from SK1 strain genomic DNA; also called His-tagged Top3; source: Hi5 insect cells, purified (TALON, heparin, ResourceS, SEC); not shown: His6, N-terminal, kept
[3]
  binding result: binds

B4: Rmi1 (as used in MST and XL-MS) (natural protein, S. cerevisiae, UniProt Q02685 1-241, looked up)
chain: T1 sequence (looked up) 2
notes: Rmi1, S. cerevisiae, from SK1 strain genomic DNA; The methods describe GST-Rmi1 and untagged (3C protease cleaved) Rmi1; also called Rmi1 alone; source: Hi5 insect cells, purified
[4]
  Kd: 1990 nM and 1980 nM
[5]
  binding result: binds
